Experimental data: patent US20230408517A1 (BIO TECHNE, published 2023)
Where two headings read alike, the source gives them in different places.

Experiments:
[1] = target: T1, IN v2 variant RBD (R319-F541 with L452R, T478K) (SARS-CoV-2, UniProt P0DTC2 319-541); test: flow cytometry, blocking of binding to hACE-2 cells
[2] = target: rSARS2 RBD aa319-541, N439K, C-His (SARS-CoV-2, UniProt P0DTC2 319-541); test: as above
[3] = target: rSARS2-B.1.617.2 S aa16-1211 10+4x aa mut., C-His (SARS-CoV-2, UniProt P0DTC2 16-1211); test: as above
[4] = target: rSARS2-B.1.1.7 S aa16-1211 2x aa mut., C-His (SARS-CoV-2, UniProt P0DTC2 16-1211); test: as above
[5] = target: rSARS2-B.1.1.7 S aa16-1211 4x aa mut., C-His (SARS-CoV-2, UniProt P0DTC2 16-1211); test: as above
[6] = target: T2, BR P.1 variant RBD (R319-F541 with K417T, E484K, N501Y), C-terminal 6-His (SARS-CoV-2, UniProt P0DTC2 319-541); test: as above
[7] = target: T3, recombinant SARS-CoV-2 spike S1 RBD (R319-F541), C-terminal 6-His (SARS-CoV-2, UniProt P0DTC2 319-541); test: as above
[8] = target: T4, SA variant RBD (R319-F541 with K417N, E484K, N501Y), C-terminal 6-His (SARS-CoV-2, UniProt P0DTC2 319-541); test: sandwich dipstick, detector Ab5-AuNP
[9] = target: T2, BR P.1 variant RBD (R319-F541 with …); test: sandwich dipstick, detector Ab5-AuNP
[10] = target: T5, UK variant RBD (R319-F541 with N501Y), C-terminal 6-His (SARS-CoV-2, UniProt P0DTC2 319-541); test: sandwich dipstick, detector Ab5-AuNP
[11] = target: T3, recombinant SARS-CoV-2 spike S1 RBD …; test: sandwich dipstick, detector Ab5-AuNP
[12] = target: T5, UK variant RBD (R319-F541 with N501Y), …; test: lateral flow NC50, RBD-AuNP vs immobilised ACE2
[13] = target: T3, recombinant SARS-CoV-2 spike S1 RBD …; test: lateral flow NC50, RBD-AuNP vs immobilised ACE2
[14] = target: T3, recombinant SARS-CoV-2 spike S1 RBD …; test: flow cytometry, blocking of binding to hACE-2 cells; remark: listed apart in the source
[15] = target: T4, SA variant RBD (R319-F541 with K417N, …); test: lateral flow NC50, RBD-AuNP vs immobilised ACE2
[16] = target: T2, BR P.1 variant RBD (R319-F541 with …); test: lateral flow NC50, RBD-AuNP vs immobilised ACE2
[17] = target: K417E RBD (R319-F541 with K417E) (SARS-CoV-2, UniProt P0DTC2 319-541); test: lateral flow NC50, RBD-AuNP vs immobilised ACE2
[18] = target: T478K RBD (R319-F541 with T478K) (SARS-CoV-2, UniProt P0DTC2 319-541); test: lateral flow NC50, RBD-AuNP vs immobilised ACE2
[19] = target: T5, UK variant RBD (R319-F541 with N501Y), …; test: lateral flow NC50, RBD-AuNP vs immobilised ACE2; remark: listed apart in the source
[20] = target: T3, recombinant SARS-CoV-2 spike S1 RBD …; test: lateral flow NC50, RBD-AuNP vs immobilised ACE2; remark: listed apart in the source
[21] = target: T1, IN v2 variant RBD (R319-F541 with …); test: dipstick, adsorbed RBD spots, Ab 10 µg/mL, GAM-AuNP
[22] = target: IN v1 variant RBD (R319-F541 with L452R, E484Q) (SARS-CoV-2, UniProt P0DTC2 319-541); test: as above
[23] = target: L452R RBD (R319-F541 with L452R) (SARS-CoV-2, UniProt P0DTC2 319-541); test: as above
[24] = target: BR P.2 variant RBD (R319-F541 with E484K) (SARS-CoV-2, UniProt P0DTC2 319-541); test: as above
[25] = target: T4, SA variant RBD (R319-F541 with K417N, …); test: sandwich dipstick, capture Ab7, detector Ab4-AuNP
[26] = target: T2, BR P.1 variant RBD (R319-F541 with …); test: sandwich dipstick, capture Ab7, detector Ab4-AuNP
[27] = target: T5, UK variant RBD (R319-F541 with N501Y), …; test: sandwich dipstick, capture Ab7, detector Ab4-AuNP
[28] = target: T3, recombinant SARS-CoV-2 spike S1 RBD …; test: sandwich dipstick, capture Ab7, detector Ab4-AuNP

B1: 1035240 (antibody, V domains shown)
VH: QVQLQQSGAELARPGASVKMSCKASGYTFTTYTMHWVKQRPGQGLEWIGYINPSSGYTNYNQKFKDKATLTADTSSSTAYMQLSSLTSEDSAVYYCARRNPLYAMDYWGQGTSVTVSS
VL: DIKMTQSPSSMYASLGERVTITCKASQDINSYLNWFQQKPGKSPKTLIYRANRLVDGVPSRFSGSGSGQDYSLTISSLEYEDMGIYYCLQYDEFPYTFGGGTKLEIK
percent blocking [1]: 0.7% | percent blocking [2]: 49% | percent blocking [3]: 0% | percent blocking [4]: 91.2% | percent blocking [5]: 78.6% | percent blocking [6]: 0% | percent blocking [7]: 99.1% | detection sensitivity [8]: 0.001 µg/mL | detection sensitivity [9]: 0.001 µg/mL | detection sensitivity [10]: 0.001 µg/mL | detection sensitivity [11]: 0.001 µg/mL | IC50 [12]: 0.86 µg/mL | IC50 [13]: 0.34 µg/mL | percent blocking [14]: 99.1% | IC50 [15]: > 45 µg/mL | IC50 [16]: > 45 µg/mL | IC50 [17]: 0.33 µg/mL | IC50 [18]: 0.61 µg/mL | IC50 [19]: 0.86 µg/mL | IC50 [20]: 0.34 µg/mL | binding result [21]: no binding (tested: 10 µg/mL) | binding result [22]: no binding (tested: 10 µg/mL) | binding result [23]: no binding (tested: 10 µg/mL) | binding result [24]: no binding (tested: 10 µg/mL) | detection sensitivity [25]: 0.1 µg/mL | detection sensitivity [26]: 0.1 µg/mL | detection sensitivity [27]: 0.01 µg/mL | detection sensitivity [28]: 0.01 µg/mL
